According to US20230272088A1 (SYNTHEKINE, published 2023):

T1: extracellular domain of mIFNGR1 (mouse, UniProt P15261 26-254, conjugated to Alexa647 (site not stated))
T1 construct: Origin and tags of the murine antigen are not described; UniProt P15261 residues 26-254; also called mIFNGR1-ECD; murine IFNGR1 ECD
T1 sequence: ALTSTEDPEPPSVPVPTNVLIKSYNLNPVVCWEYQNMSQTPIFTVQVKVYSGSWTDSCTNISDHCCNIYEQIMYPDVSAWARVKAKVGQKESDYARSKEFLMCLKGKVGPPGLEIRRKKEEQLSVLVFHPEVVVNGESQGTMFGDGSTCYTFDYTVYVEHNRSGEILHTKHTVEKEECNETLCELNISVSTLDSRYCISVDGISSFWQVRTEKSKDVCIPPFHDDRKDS

T2: extracellular domain of hIFNGR1 (human, UniProt P15260 18-245, conjugated to Alexa647 (site not stated))
T2 construct: UniProt P15260 residues 18-245; also called hIFNGR1-ECD; human IFNGR1 ECD
T2 sequence: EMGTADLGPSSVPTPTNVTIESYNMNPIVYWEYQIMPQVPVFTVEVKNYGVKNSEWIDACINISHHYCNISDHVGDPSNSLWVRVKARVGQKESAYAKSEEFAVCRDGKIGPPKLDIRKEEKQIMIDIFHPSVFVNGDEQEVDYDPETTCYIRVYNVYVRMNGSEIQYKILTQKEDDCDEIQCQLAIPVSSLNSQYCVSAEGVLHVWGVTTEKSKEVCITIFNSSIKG

T3: extracellular domain of hIFNGR2 (human, UniProt P38484 28-247, conjugated to Alexa647 (site not stated))
T3 construct: also called hIFNGR2-ECD; human IFNGR2 ECD
T3 sequence: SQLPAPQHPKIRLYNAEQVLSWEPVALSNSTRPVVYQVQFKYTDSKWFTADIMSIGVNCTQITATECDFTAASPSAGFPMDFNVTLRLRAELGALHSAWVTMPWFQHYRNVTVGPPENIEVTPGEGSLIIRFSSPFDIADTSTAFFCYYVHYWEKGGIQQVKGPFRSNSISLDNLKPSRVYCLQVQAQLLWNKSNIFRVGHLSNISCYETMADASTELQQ

B1: DR926 (VHH)
VHH: EVQLVESGGGLVQAGGSLRLSCAASGRTFSRYAMNWFRQAPGKEREFVAAISWSSGNTYVADSVKGRFTISRDNAKNTMYLQMNNLAPEDTAVYYCAATTIATMSDENTYWGQGTQVTVSS
notes: also called anti-IFNGR1 sdAb VHH DR926
B2: DR903 (VHH)
VHH: EVQLVESGGGLVQAGGSLRLSCAASGRIASDYTRGWFRQAPGKEREFVAAIIRSVGDSYYADSVKGRFTISIDNAENTVYLQMNSLKPEDTAVYYCAVGGHLYYGSRWRYPASYDYWGQGTQVTVSS
notes: also called anti-IFNGR1 sdAb VHH DR903
B3: DR923 (VHH)
VHH: QVQLVESGGGLVQAGGSLRLSCAASRRTFMTYAMGWFRQAPGKEREFVAAISWSSGSTYYADSVKGRFTISRDNAKNTMYLQMNSLKPEDTAVYYCTASSIATMYGPNDYAGQGTLVTVSS
notes: also called anti-IFNGR1 sdAb VHH DR923
B4: DR924 (VHH)
VHH: QVQLVESGGGLVQAGGSLRLSCTASGRTFSRYAMGWFRQAPGKEREFVATISRSGGTTSYANSVKGRFTISRDNAKNTVYLQMNSLKTEDTAVYNCAARDGPAMGVFGSDYDYWGQGTLVTVSS
notes: also called anti-IFNGR1 sdAb VHH DR924
B5: DR925 (VHH)
VHH: EVQLVESGGGLVQAGGSLVLSCAASGRTFSRYAMGWFRQAPGKEREFVAAISIGGGSADYADTVKGRFTISRNNAKNTMYLQMNSLKPEDTAVYYCAARTPRPSSSYFTPQDYEYWGQGTLVTVSS
notes: also called anti-IFNGR1 sdAb VHH DR925
B6: DR915 (VHH)
VHH: EVQLVESGGGLVQAGGSLRLSCAAARRTLHNFAMAWFRQAPGKEREFVAAISKGGGSADYADSVKGRFTISRDNAKNTVYLQMNSLKPEDTAVYYCAANDLASYSDSSYTSTSRYDYWGQGTQVTVSS
notes: also called anti-IFNGR1 sdAb VHH DR915
B7: DR916 (VHH)
VHH: EVQLVESGGGLVQPGGSLRLSCTASGRPRTTYAMGWFRQAPGKEREIVAAISKAGGSTYVADSAKGRFAISKDNAKNTVYLQMNSLKPEDTAVYYCAARAGFAAQIFEYDYWGQGTLVTVSS
notes: also called anti-IFNGR1 sdAb VHH DR916
B8: DR911 (VHH)
VHH: EVQLVESGGALVQAGGSLRLSCTVSGRSFSTYAMAWFRRAPGKERELVSAITVGGGSTYYVDSVKGRFTISRENAKNTLYLQMNNLKPEDTAIYICAARDYRRRSYAPEAEQYDYWGQGTQVTVSS
notes: also called anti-IFNGR1 sdAb VHH DR911
B9: DR913 (VHH)
VHH: EVQLVESGGGLVQAGGFLRLSCAASGRTFSSYAMGWFRQIPGKERELVAAISSWSGGSTYYADSVKGRFTISRDNAKNTVYLQMLSLKPEDTAVYYCTTGDYYSDYFKYDNENWGKGTQVTVSS
notes: also called anti-IFNGR1 sdAb VHH DR913
B10: DR909 (VHH)
VHH: EVQLVESGGGLVQAGGSLRLSCAASGRTFGTSFGALSMGWFRQAPGKEREFVAAITRNTGRTFYADSVKDRFTISRDNAKNTASLQMNSLEPEDTAVYICAATNSYDDLRRSYAYNYWGQGTQVTVSS
notes: also called anti-IFNGR1 sdAb VHH DR909
B11: DR918 (VHH)
VHH: EVQLVESGGGLVQAGGSLRLSCATSGLTDSTYGMAWFRQAPGKEREFVAAISRAGGSADHADSVKGRFTVSRDNAKKMVYLQMNSLKPEDTAVYYCASGRSYSSPYDYFNALAYSYWGQGTQVTVSS
notes: also called anti-IFNGR1 sdAb VHH DR918
B12: DR922 (VHH)
VHH: QVQLVESGGGLVRAGGSLRLSCAASGSITSINTMGWFRQAPGKQRELVAAITSGGSTNYADSVKGRFTISRDNARNTVYLQMYSLKPEDTAVYYCEADSMYFRGQGTQVTVSS
notes: also called anti-IFNGR1 sdAb VHH DR922
B13: DR920 (VHH)
VHH: EVQLVESGGGLVQAGGSLRLSCAASGRSFANYAMGWFRQAPGKERETVAAISRGGGSTWYADSVKGRFTISKDNAKNTVYLQMNSLKPEDTAIYYCAARSYSGSYTYSFGEYDYWGQGTQVTVSS
notes: also called anti-IFNGR1 sdAb VHH DR920
B14: DR914 (VHH)
VHH: EVQLVESGGGLVQAGGSLTLSCVASGRAFSNSAMAWFRQTPGKEREFVSAISRGGGSTDYADSVKGRFTISKDNAKNTVYLQMNSLKPEDTAVYYCAMRYYSGRYYESLEYDYWGQGTQVTVSS
notes: also called anti-IFNGR1 sdAb VHH DR914
B15: DR917 (VHH)
VHH: EVQLVESGGGLVQAGGSLRLSCAASGRTFSGYNMGWFRQAPGKEREFVAAIAWAGSRTYYTDSVKGRFTISRDNAKNTMYLQMNTLRPEDTAVYYCAAHDETYYRLDRVDLYTHWGQGTLVTVSS
notes: also called anti-IFNGR1 sdAb VHH DR917
B16: DR906 (VHH)
VHH: EVQLVESGGGLVQAGGSLRLSCAASGSTFSTYVMGWFRQAPGKEREFVAAISRSGGTTTYADSVKGRFDISRDNGKNTLFLQMNSLIPEDTAAYYCAARAGPAIGRTANDYHSWGQGTLVTVSS
notes: also called anti-IFNGR1 sdAb VHH DR906
B17: DR912 (VHH)
VHH: EVQLVESGGGLVQAGGSLRLSCAPSGRTFSSYAMAWFRQPPGKEREFVAAITVSGASTYYADSVKGRFTISRDNAKNSMYLQMNSLKPEDTAVYYCAAGGPGTIFPDYDYWGQGTQVTVSS
notes: also called anti-IFNGR1 sdAb VHH DR912
B18: DR910 (VHH)
VHH: EVQLVESGGGLVQTGGSLRLSCAASGRTFSSYAMAWFRQAPGKEREFVAAISILGGSADYEDSVQGRFTISRDNAKNTMYLQMNSLKPEDTAVYYCAARRPAPSDSYWSSTSYAYWGQGTLVTVSS
notes: also called anti-IFNGR1 sdAb VHH DR910
B19: DR905 (VHH)
VHH: EVQLVESGGGLVQAGGSLRLSCVASGRTFTGYAMGWFRQAPGKEREFVAVITWSGATTYYSASVKGRFTLSRDNAKNTVYLQMNSLKSEDTAVYYCAIRIRDGVSPENPNEYGYWGQGTQVTVSS
notes: also called anti-IFNGR1 sdAb VHH DR905
B20: DR958 (VHH)
VHH: QVQLVESGGGLVQAGDSLTLSCTASGRTFSGYNMGWFRQAPGKERDFVAAINWIGGATYYADSVKGRFTISRDNAKNTVYLQMNSLKPEDTAVYYCHRYSEKFYSGKDYYTRDYDYWGQGTQVTVSS
notes: also called anti-IFNGR2 sdAb VHH DR958
B21: DR953 (VHH)
VHH: QVQLVESGGGLVQAGDSLRLSCAASGPTFSTYAMAWFRQAPGKEREFVAAITQSGRTTYYEDSVKGRFTISKDNAKNTLYLQMNSLQPEDTAVYYCAARDLWSDSPDDWRIYSFWGQGTQVTVSS
notes: also called anti-IFNGR2 sdAb VHH DR953
B22: DR956 (VHH)
VHH: EVQLVESGGGLVQAGGSLRLSCAASGRTFSSLAMAWFRQAPGKEREFVAATTILGGSADYGDPVKGRFTISRDNAKNTVYLQMNSLKPEDTAVYYCTGRRPAPSDNYWSPASYAYWGQGTQVTVSS
notes: also called anti-IFNGR2 sdAb VHH DR956

Molecular target: T1, extracellular domain of mIFNGR1
Experiment: flow cytometry, yeast-displayed VHH, 100 nM Alexa647-conjugated antigen
Description: (§1) Binding of individual VHH to human and murine antigen was tested by flow cytometry. Briefly, 2E5 yeast cells expressing a single sdAb clone were added to each well of a 96 well plate. The first plate was incubated with 100 nM of human antigen conjugated to Alexa647 whereas the second plate was incubated with 100 nM of murine antigen conjugated to Alexa647. Yeast cells were washed 3 times with PBS containing 1% bovine serum albumin. Yeast cells were analyzed using flow cytometry and clones showing a mean fluorescence intensity of greater than 1000 were considered as binding molecules. Specificity of sdAbs was confirmed by incubating yeast cells with a irrelevant protein conjugated to Alexa647. Positive clones were sequenced, and sequences analyzed to identify unique clonotypes.

Binding result, binds:
B1
B2
B3
B4
B5
B6
B7
B8
B9
B10
B11
B12
B13
B14
B15
B16
B17
B18
B19

Molecular target: T2, extracellular domain of hIFNGR1
Experiment: as above
Description: as §1

Binding result, binds:
B1
B3
B4
B5
B6
B7
B8
B9
B10
B11
B12
B13
B14
B15
B16
B17
B18
B19

Molecular target: T3, extracellular domain of hIFNGR2
Experiment: flow cytometry

Binding result, binds:
B20
B21
B22

Molecular target: T2, extracellular domain of hIFNGR1
Experiment: flow cytometry

Binding result, binds:
B2
